The target in the test is T1, C-terminal GFP-tagged ACE2 fusion protein stably expressed on HEK293T cells (ACE2-GFP HEK293T) (UniProt Q9BYF1 18-805).
T1 construct: also called ACE2-GFP HEK293T clone 2; ACE2-GFP HEK293T clone 1
In words: live-cell confocal imaging of ACE2-GFP HEK293T cells.

T1 sequence (Q9BYF1 18-805): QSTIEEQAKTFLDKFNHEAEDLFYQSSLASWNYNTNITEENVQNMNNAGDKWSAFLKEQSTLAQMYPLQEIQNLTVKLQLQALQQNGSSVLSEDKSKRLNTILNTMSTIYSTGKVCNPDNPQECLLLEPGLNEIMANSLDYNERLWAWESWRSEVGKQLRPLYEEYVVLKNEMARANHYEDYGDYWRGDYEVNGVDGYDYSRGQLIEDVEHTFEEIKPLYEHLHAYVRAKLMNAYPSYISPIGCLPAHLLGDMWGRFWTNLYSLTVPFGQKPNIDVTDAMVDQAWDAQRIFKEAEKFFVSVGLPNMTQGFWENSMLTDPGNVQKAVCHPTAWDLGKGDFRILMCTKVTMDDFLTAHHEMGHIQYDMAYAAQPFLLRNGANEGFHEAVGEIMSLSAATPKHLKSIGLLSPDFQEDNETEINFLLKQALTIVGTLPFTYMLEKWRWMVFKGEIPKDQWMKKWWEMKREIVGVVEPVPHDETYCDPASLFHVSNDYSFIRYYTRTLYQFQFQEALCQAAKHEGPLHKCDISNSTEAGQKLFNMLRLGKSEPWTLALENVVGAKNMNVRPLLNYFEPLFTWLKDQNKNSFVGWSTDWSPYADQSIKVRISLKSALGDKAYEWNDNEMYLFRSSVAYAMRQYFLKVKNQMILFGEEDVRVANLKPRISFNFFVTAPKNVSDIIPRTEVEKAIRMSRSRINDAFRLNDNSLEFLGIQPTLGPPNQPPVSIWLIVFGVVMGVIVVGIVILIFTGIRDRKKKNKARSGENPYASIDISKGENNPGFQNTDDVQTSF

B1: SARS-CoV [change] (40150-V08B1) (ligand)
chain: not shown
Take B1: the binding result is reported as “binds”.

The values are drawn from patent US20220034884A1 (GOVERNMENT OF THE UNITED STATES OF AMERICA AS REPRESENTED …, published 2022).
